Data set [1] concerns the target T1, Ss-RmlD (Saccharothrix syringae, UniProt A0A5Q0HAF2).
T1 construct: gene rfbD
T1 sequence (A0A5Q0HAF2 1-297): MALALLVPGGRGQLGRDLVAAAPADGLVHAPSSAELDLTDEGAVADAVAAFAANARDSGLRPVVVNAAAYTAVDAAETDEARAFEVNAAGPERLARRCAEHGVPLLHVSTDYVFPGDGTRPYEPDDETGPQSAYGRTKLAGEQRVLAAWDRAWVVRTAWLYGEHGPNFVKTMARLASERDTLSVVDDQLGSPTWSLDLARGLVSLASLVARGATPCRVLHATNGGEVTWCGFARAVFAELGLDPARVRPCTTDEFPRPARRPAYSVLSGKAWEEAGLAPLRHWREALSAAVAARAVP
The data set can be described thus: one-pot reaction with Ss-RmlABC; product yield by HPLC. Type of data set: biochemical. Conditions: pH 8.5, 30 °C; dTDP-4-keto-rhamnose made in situ.

Substrate in data set [2]: Cc1cn([C@H]2C[C@H](O)[C@@H](COP(=O)(O)OP(=O)(O)O[C@H]3O[C@H](CO)[C@@H](O)[C@H](O)[C@H]3O)O2)c(=O)[nH]c1=O
Put plainly: purified protein. Type of data set: biochemical, Saccharothrix syringae. Conditions: optimal conditions (50 °C, pH 7.5, 0.02 mM NAD+).

Substrate in data set [3]: Cc1cn([C@H]2C[C@H](O)[C@@H](COP(=O)(O)OP(=O)(O)OP(=O)(O)O)O2)c(=O)[nH]c1=O
Put plainly: malachite green PPi release assay with inorganic pyrophosphatase. The data set is classed as biochemical, Saccharothrix syringae. Conditions: 1 mM Glc-1-P, optimal conditions (37 °C, pH 9.0, 2.5 mM Mg2+).

Substrate in data set [4]: O=P(O)(O)O[C@H]1O[C@H](CO)[C@@H](O)[C@H](O)[C@H]1O
The data set is described as above. Type of data set: biochemical, Saccharothrix syringae. Conditions: 1 mM dTTP, optimal conditions (37 °C, pH 9.0, 2.5 mM Mg2+).

As to `NC(=O)C1=CN([C@@H]2O[C@H](COP(=O)(O)OP(=O)(O)OC[C@H]3O[C@@H](n4cnc5c(N)ncnc54)[C@H](OP(=O)(O)O)[C@@H]3O)[C@@H](O)[C@H]2O)C=CC1` [NADPH], the “one-pot reaction with Ss-RmlABC; product yield by HPLC” value in data set [1] is on record as “NADPH was an essential cofactor for the final step of reduction catalyzed by Ss-RmlD”.

B1: Ss-RmlB (Saccharothrix syringae) (protein)
chain: MRVLVTGGAGFIGSHYVRELVGGSYPAYADAEVVVLDKLTYAGNEANLAPVADSPRLTFVRGDICDRELVVGVMRGVDVVVHFAAESHVDRSITGSADFVLTNVLGTQVLLQAALEAGVAKFVHVSTDEVYGSIAEGSWTEDHVLEPNSPYSASKASSDLLARAFHRTHGLPVCVTRCSNNYGPYQFPEKVIPLFVTNLVDGRKVPLYGDGLNVRDWLHVDDHCRGIQLVLEGGRGGEIYNIGGGTELTNRELTARLLEATGRDWDSFVEPVEDRKGHDRRYSVDITKISTELGYAPRVDFAEGLAATVRWYRENRAWWEPLKQRAALTG
Consider B1, for which, in data set [2], the Km came out at 98.60 µM and the kcat was 11.2 s⁻¹.

B2: Ss-RmlA (Saccharothrix syringae) (protein)
chain: MKGIILAGGSGTRLHPITQAVSKQLLPVYDKPMVYYPLSVLMLAGIREILLISTPTDLPLFRRLLGDGSQFGLSVSYAEQAQPNGLAEAFVIGADFVGDDDVSLVLGDNIFYGQGFSRLLQHHAATLDGCVLFGYPVKDPERYGVGEVDATGRLVSIEEKPAAPKSNKAITGLYFYDNQVVDIARNLRPSARGELEITDVNLTYLRQGRAHLVDLGRGFAWLDTGTHDSLLEAGQFVQVLEHRQGVRIACPEEIALRMGFITADECYALGEKLAKSGYGQYVMYVAREVR
With B2, the Km in data set [3] stood at 49.56 µM; in data set [4], 117.30 µM. Further, the kcat in data set [3] is 5.39 s⁻¹; in data set [4], 3.46 s⁻¹.
